Sequences and labels used below:
B1: Azoarcus group I ribozyme (parent)
chain: GUGCCUUGCGCCGGGAAACCACGCAAGGGAUGGUGUCAAAUUCGGCGAAACCUAAGCGCCCGCCCGGGCGUAUGGCAACGCCGAGCCAAGCUUCGGCGCCUGCGCCGAUGAAGGUGUAGAGACUAGACGGCACCCACCUAAGGCAAACGCUAUGGUGAAGGCAUAGUCCAGGGAGUGGCGAAAGUCACACAAACCGG

Variants of B1 are the subject of the series. The series can be described thus: reverse-splicing fitness (ratio to wild type); higher = more active; in vitro selection; Mg2+ level not given. In a few lines: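 An in vitro group I ribozyme library with randomized positions was T7-transcribed and gel-purified. In triplicate, 10 pmol RNA in EPPS pH 7.5 was reacted with 50 pmoles of a 30-nt RNA substrate for 1 h at 37 °C across several added MgCl2 levels (1–48 mM), then stopped with EDTA. Products were reverse transcribed from a substrate-complementary primer, PCR-amplified and sequenced (HiSeq 4000). Fitness is a variant's read proportion after selection over that before, normalised to wild type.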
On to C82G A120U A145C C150U C169U U176C, for which the reverse-splicing fitness is 0.00227.

Consider C82G A120U A145C C150U C169U U176A, for which the reverse-splicing fitness was found to be 0.00246.

Take C82G A120U A145G C150G C169A U176A: the reverse-splicing fitness was determined as 0.012.

As for C82G A120U A145G C150G C169A U176G, the reverse-splicing fitness stood at 0.00485.

Consider C82G A120U A145G C150G C169A U176C, for which the reverse-splicing fitness was determined as 0.00809.

For C82G A120G C150A C169U U176C, the reverse-splicing fitness turned out to be 0.02.

For the variant C82G A120G C150A C169U U176A, the reverse-splicing fitness stood at 0.0248.

For the variant C82G A120G C150A C169U U176G, the reverse-splicing fitness stood at 0.00754.

For the variant C82G A120U A145C C150G U176A, the reverse-splicing fitness was found to be 0.00741.

Consider C82G A120U A145C C150G U176G, for which the reverse-splicing fitness was determined as 0.00292.

As to C82G A120U A145C C150G U176C, the reverse-splicing fitness stood at 0.00907.

For C82G A120G C150A C169A U176G, the reverse-splicing fitness was found to be 0.00604.

For C82G A120G C150A C169A U176C, the reverse-splicing fitness came out at 0.0244.

C82G A120G C150A C169A U176A: the reverse-splicing fitness worked out at 0.0208.

With C82G A120U A145G C150A C169A U176A, the reverse-splicing fitness was determined as 0.00645.

Take C82G A120U A145G C150A C169A U176C: the reverse-splicing fitness amounted to 0.00287.

For the variant C82G A120U A145G C150A C169A U176G, the reverse-splicing fitness was 0.00256.

Consider C82G A120U A145C C150A C169G U176A, for which the reverse-splicing fitness was 0.0023.

For C82G A120U A145C C150A C169G U176C, the reverse-splicing fitness was 0.00207.

In the case of C82G A120U A145C C150A C169G U176G, the reverse-splicing fitness was determined as 0.00136.

As for C82G A120U A145G C169G, the reverse-splicing fitness amounted to 0.00688.

Take C82G A120U A145G C169A: the reverse-splicing fitness worked out at 0.00321.

Consider C82G A120U A145G C169U, for which the reverse-splicing fitness is 0.00713.

Regarding C82G A120U A145U C150A U176G, the reverse-splicing fitness worked out at 0.00423.

Turning to C82G A120U A145U C150A U176C, the reverse-splicing fitness was 0.0105.

For C82G A120U A145U C150A U176A, the reverse-splicing fitness turned out to be 0.0083.

Turning to C82G A120U A145C C150U U176A, the reverse-splicing fitness is 0.0158.

C82G A120U A145C C150U U176G: the reverse-splicing fitness was determined as 0.00871.

For C82G A120U A145C C150U U176C, the reverse-splicing fitness was found to be 0.0197.

For the variant C82G A120G A145U C169A U176G, the reverse-splicing fitness was found to be 0.00363.

Turning to C82G A120G A145U C169A U176A, the reverse-splicing fitness is 0.0122.

C82G A120G A145U C169A U176C: the reverse-splicing fitness is 0.0199.

In the case of C82G A120U A145G U176G, the reverse-splicing fitness came to 0.0134.

With C82G A120U A145G U176A, the reverse-splicing fitness is 0.0724.

Consider C82G A120U A145G U176C, for which the reverse-splicing fitness was found to be 0.11.

Consider C82G A120G C150A U176G, for which the reverse-splicing fitness is 0.0105.

Regarding C82G A120G C150A U176A, the reverse-splicing fitness stood at 0.0119.

Take C82G A120G C150A U176C: the reverse-splicing fitness turned out to be 0.0195.

Take C82G A120G C150G C169A U176C: the reverse-splicing fitness stood at 0.0102.

In the case of C82G A120G C150G C169A U176A, the reverse-splicing fitness amounted to 0.0109.

Consider C82G A120G C150G C169A U176G, for which the reverse-splicing fitness is 0.00588.

Consider C82G A120U A145C C150U C169G U176A, for which the reverse-splicing fitness was 0.00262.

With C82G A120U A145C C150U C169G U176G, the reverse-splicing fitness stood at 0.00162.

Regarding C82G A120U A145C C150U C169G U176C, the reverse-splicing fitness is 0.00277.

On to C82G A120U A145U C150G C169A U176C, for which the reverse-splicing fitness was 0.00187.

For C82G A120U A145U C150G C169A U176A, the reverse-splicing fitness is 0.0026.

For the variant C82G A120U A145U C150G C169A U176G, the reverse-splicing fitness came to 0.00205.

C82G A120G C150U C169U U176C: the reverse-splicing fitness came out at 0.0203.

Consider C82G A120G C150U C169U U176G, for which the reverse-splicing fitness was 0.00651.

As to C82G A120G C150U C169U U176A, the reverse-splicing fitness was determined as 0.023.

In the case of C82G A120U A145C C150A C169U U176G, the reverse-splicing fitness amounted to 0.00162.

For C82G A120U A145C C150A C169U U176A, the reverse-splicing fitness worked out at 0.0023.

Take C82G A120U A145C C150A C169U U176C: the reverse-splicing fitness is 0.00224.

On to C82G A120U A145G C150A C169U, for which the reverse-splicing fitness came out at 0.00376.

As for C82G A120U A145G C150A C169A, the reverse-splicing fitness is 0.00575.

In the case of C82G A120U A145G C150A C169G, the reverse-splicing fitness was 0.00459.

As to C82G A120G C169A, the reverse-splicing fitness came to 0.0302.

In the case of C82G A120G C169U, the reverse-splicing fitness was found to be 0.0237.

C82G A120G C169G: the reverse-splicing fitness amounted to 0.0529.

Turning to C82G A120U A145U C150A C169A U176C, the reverse-splicing fitness was found to be 0.00199.

Take C82G A120U A145U C150A C169A U176A: the reverse-splicing fitness came to 0.00218.

For C82G A120U A145U C150A C169A U176G, the reverse-splicing fitness stood at 0.00156.

Consider C82G A120U A145C C150A C169G, for which the reverse-splicing fitness is 0.00199.

Turning to C82G A120U A145C C150A C169A, the reverse-splicing fitness is 0.00159.

Consider C82G A120U A145C C150A C169U, for which the reverse-splicing fitness is 0.00213.

With C82G A120U A145C C169G U176A, the reverse-splicing fitness came out at 0.00239.

On to C82G A120U A145C C169G U176C, for which the reverse-splicing fitness stood at 0.00261.

With C82G A120U A145C C169G U176G, the reverse-splicing fitness was determined as 0.00141.

In the case of C82G A120G C150A C169U, the reverse-splicing fitness was determined as 0.00945.

With C82G A120G C150A C169G, the reverse-splicing fitness is 0.0133.

For the variant C82G A120G C150A C169A, the reverse-splicing fitness was determined as 0.0117.

As to C82G A120G A145U C150A C169U, the reverse-splicing fitness came to 0.00806.

On to C82G A120G A145U C150A C169G, for which the reverse-splicing fitness was 0.00926.

Regarding C82G A120G A145U C150A C169A, the reverse-splicing fitness turned out to be 0.00985.

In the case of C82G A120U, the reverse-splicing fitness was 0.251.

For the variant C82G A120U A145G C150U U176C, the reverse-splicing fitness amounted to 0.0776.

Consider C82G A120U A145G C150U U176G, for which the reverse-splicing fitness is 0.0104.

On to C82G A120U A145G C150U U176A, for which the reverse-splicing fitness is 0.0528.

As for C82G A120G C150G U176C, the reverse-splicing fitness was found to be 0.0105.

Turning to C82G A120G C150G U176G, the reverse-splicing fitness is 0.00387.

As to C82G A120G C150G U176A, the reverse-splicing fitness amounted to 0.00652.

C82G A120U A145G C150A C169G U176C: the reverse-splicing fitness was 0.00422.

C82G A120U A145G C150A C169G U176A: the reverse-splicing fitness was determined as 0.00555.

As to C82G A120U A145G C150A C169G U176G, the reverse-splicing fitness is 0.00199.

Values taken from the RNAGym collection of RNA variant scans (doi:10.1093/molbev/msab373).
